Source: the supplement of paper PMC10567573

B1: MIA2 (parent)
chain: NSISSDKEATVPCTEILTEKKDTI
B2: FBF1 (parent)
chain: LQRASILDMRRDHEEQLQRLKLLK

Variants of: B1
Assay: protein stability index of a GFP-peptide fusion (GPS, HEK-293T) (PSI 1-6); higher = more stable
Settings: c terminus: a fixed tail appended
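Further: lentivirally expressed fusions sorted by FACS into six bins by GFP to DsRed ratio, PSI derived from sequencing read proportions per bin multiplied by bin number.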

| Variant | protein stability index |
| --- | --- |
| NSISSDYEATVPCTEILTEKKDTI | 5.17 |
| NSISSDLEATVPCTEILTEKKDTI | 5.52 |
| NSISSDIEATVPCTEILTEKKDTI | 5.27 |
| NSIDSDKEATVPCTEILTEKKDTI | 5.54 |
| NSIFSDKEATVPCTEILTEKKDTI | 4.76 |
| NSIISDKEATVPCTEILTEKKDTI | 4.68 |
| NSIVSDKEATVPCTEILTEKKDTI | 5.32 |
| NSIHSDKEATVPCTEILTEKKDTI | 5.5 |
| NSIPSDKEATVPCTEILTEKKDTI | 5.24 |
| NSISSIKEATVPCTEILTEKKDTI | 4.98 |
| NSISSLKEATVPCTEILTEKKDTI | 5.06 |
| NSISSNKEATVPCTEILTEKKDTI | 5.42 |
| NSISSFKEATVPCTEILTEKKDTI | 4.84 |
| NSISSRKEATVPCTEILTEKKDTI | 4.9 |
| NSISSDKEATYPCTEILTEKKDTI | 4.89 |
| NSISSDKEATSPCTEILTEKKDTI | 5.22 |
| NSISSDKEATGPCTEILTEKKDTI | 5.07 |
| NSISSDKEATQPCTEILTEKKDTI | 5.53 |
| NSISSDKEATCPCTEILTEKKDTI | 4.84 |
| NSISSDKEATVPCTEILTVKKDTI | 5.18 |
| NSISSDKEATVPCTEILTWKKDTI | 4.59 |
| NSISSDKEATVPCTEILTSKKDTI | 5.3 |
| NSISSDKEATVPCTEILTYKKDTI | 5.06 |
| NSISSDKEATVPCTEILTAKKDTI | 5.34 |
| NSISSDKEATVPCTEILTQKKDTI | 5.22 |

| Variant | protein stability index |
| --- | --- |
| NSISSDKEATVPCTEILTGKKDTI | 5.22 |
| NSISSDKEATVPCTEILTHKKDTI | 5.03 |
| NSISSDKEATVPCTEILTDKKDTI | 5.46 |
| NSISSDKEATVPCTEILMEKKDTI | 4.89 |
| NSISSDKEATVPCTEILWEKKDTI | 5.05 |
| NSISSDKEATVPCTEILREKKDTI | 5.1 |
| NSISSDKEATVPCTEILQEKKDTI | 5.4 |
| NSISSDKEATVPCTEILGEKKDTI | 5.43 |
| NSISSDKEATVPCTEILEEKKDTI | 5.63 |
| NSISSDKEATVPCTEILYEKKDTI | 5.19 |
| NSISSDKEATVPCTEILHEKKDTI | 5.35 |
| NSISSDKEATVPCTEILDEKKDTI | 5.72 |
| NSISSDKEATVPCTEILTEKLDTI | 5.42 |
| NSISSDKEATVPCTEILTEKGDTI | 5.16 |
| KSISSDKEATVPCTEILTEKKDTI | 5.76 |
| NSISSDKEATVPCTEITTEKKDTI | 5.71 |
| NSISSDKEATVPCTEIPTEKKDTI | 5.62 |
| NSISSDKEATVPCTEINTEKKDTI | 5.4 |
| NSISSDKEATVPCTEIHTEKKDTI | 5.21 |
| NSISSDKEATVPCTEIFTEKKDTI | 5.29 |
| NSISSDKEATVPCTEIYTEKKDTI | 5.37 |
| NSISSDKEATVPCTEISTEKKDTI | 5.57 |
| NSISSDKEATVPCTEIGTEKKDTI | 5.64 |
| NSISSDKEATVPCTEIWTEKKDTI | 4.52 |
| NSISSDKEATVPCTFILTEKKDTI | 4.46 |

| Variant | protein stability index |
| --- | --- |
| NSISSDKEATVPCTSILTEKKDTI | 5.34 |
| NSISSDKEATVPCTDILTEKKDTI | 5.45 |
| NSISSDKEATVYCTEILTEKKDTI | 4.34 |
| NSISSDKEATVHCTEILTEKKDTI | 5 |
| NSISSDKEATVECTEILTEKKDTI | 5.57 |
| NSISSDKEATVDCTEILTEKKDTI | 5.53 |
| NSISSDKEATVTCTEILTEKKDTI | 5.48 |
| NSISSDKEATVKCTEILTEKKDTI | 5.47 |
| NSISSDKEATVCCTEILTEKKDTI | 5.28 |
| NSISSDKEATVICTEILTEKKDTI | 5.11 |
| NSISSDKEATVQCTEILTEKKDTI | 5.4 |
| NHISSDKEATVPCTEILTEKKDTI | 5.09 |
| NMISSDKEATVPCTEILTEKKDTI | 5.54 |
| NDISSDKEATVPCTEILTEKKDTI | 5.59 |
| NSISSDKEATVPCTEILTEAKDTI | 5.34 |
| NSISSDKEATVPCTEILTEFKDTI | 4.64 |
| NSISSDKEATVPCTEILTEDKDTI | 5.68 |
| NSISSDKEATVPCTEILTEMKDTI | 5.35 |
| NSISSDKEATVPCTEILTEVKDTI | 5.31 |
| NSISSDKEATVPCTEILTEKKMTI | 4.62 |
| NSISSDKEATVPCTEILTEKKCTI | 4.97 |
| NSISSDKEATVPCTEILTEKKRTI | 4.89 |
| NSISSDKEATVPCTEILTEKKGTI | 5.33 |
| NSISSDKEATVPCTEILTEKKFTI | 4.5 |
| NSISSDKEATVPCTEILTEKKVTI | 4.31 |

| Variant | protein stability index |
| --- | --- |
| NSISSDKEATVPCTEILTEKKYTI | 4.53 |
| NSISSDKEATVPCTEILTEKKETI | 5.6 |
| NSISSDKEATVPCTEILTEKKSTI | 4.7 |
| NSISSDKECTVPCTEILTEKKDTI | 4.71 |
| NSISSDKENTVPCTEILTEKKDTI | 4.88 |
| NSISSDKEVTVPCTEILTEKKDTI | 5.17 |
| NSISSDKEGTVPCTEILTEKKDTI | 5.42 |
| NSISSDKEPTVPCTEILTEKKDTI | 5.38 |
| NSISSDKEKTVPCTEILTEKKDTI | 5.47 |
| NSISSDKEYTVPCTEILTEKKDTI | 5.05 |
| NSISSDKESTVPCTEILTEKKDTI | 5.31 |
| NSISSDKELTVPCTEILTEKKDTI | 5.32 |
| NSISSDKEETVPCTEILTEKKDTI | 5.28 |
| NSISSDKEATVPQTEILTEKKDTI | 5.57 |
| NSISSDKEATVPMTEILTEKKDTI | 5.59 |
| NSISSDKEATVPRTEILTEKKDTI | 4.99 |
| NSISSDKEATVPLTEILTEKKDTI | 5.25 |
| NSISSDKEATVPDTEILTEKKDTI | 5.54 |
| NSISSDKEATVPSTEILTEKKDTI | 5.65 |
| NSISSDKEATVPNTEILTEKKDTI | 5.7 |
| NSISSDKEATVPGTEILTEKKDTI | 5.49 |
| NSTSSDKEATVPCTEILTEKKDTI | 4.68 |
| NSGSSDKEATVPCTEILTEKKDTI | 5.54 |
| NSSSSDKEATVPCTEILTEKKDTI | 5.42 |
| NSCSSDKEATVPCTEILTEKKDTI | 5.33 |

| Variant | protein stability index |
| --- | --- |
| NSASSDKEATVPCTEILTEKKDTI | 5.61 |
| NSPSSDKEATVPCTEILTEKKDTI | 5.36 |
| NSISSDKEATVPCTEILTEKKDTM | 5.52 |
| NSISSDKEATVPCTEILTEKKDTQ | 5.61 |
| NSISSDKEATVPCTEILTEKKDTV | 5.63 |
| NSISSDKEATVPCTEILTEKKDTW | 5.32 |
| NSISSDKEATVPCTEILTEKKDTE | 5.81 |
| NSISSDKEATVPCTEILTEKKDTD | 5.72 |
| NSISMDKEATVPCTEILTEKKDTI | 5.23 |
| NSISCDKEATVPCTEILTEKKDTI | 5.25 |
| NSISWDKEATVPCTEILTEKKDTI | 5.17 |
| NSISLDKEATVPCTEILTEKKDTI | 5.42 |
| NSISYDKEATVPCTEILTEKKDTI | 5.23 |
| NSISRDKEATVPCTEILTEKKDTI | 4.71 |
| NSISEDKEATVPCTEILTEKKDTI | 5.67 |
| NSISADKEATVPCTEILTEKKDTI | 5.33 |
| NSISSDKEATVPCTEQLTEKKDTI | 5.65 |
| NSISSDKEATVPCTEFLTEKKDTI | 5.19 |
| NSISSDKEATVPCTELLTEKKDTI | 5.51 |
| NSISSDKEATVPCTEKLTEKKDTI | 5.64 |
| NSISSDKEATVPCTECLTEKKDTI | 5.27 |
| NSISSDKEATVPCTEPLTEKKDTI | 5.52 |
| NSISSDKEATVPCTESLTEKKDTI | 5.41 |
| NSISSDKEATVPCTETLTEKKDTI | 5.63 |
| NSISSDKEATVPCNEILTEKKDTI | 5.42 |

| Variant | protein stability index |
| --- | --- |
| NSISSDKEATVPCKEILTEKKDTI | 5.49 |
| NSISSDKEATVPCGEILTEKKDTI | 5.09 |
| NSISSDKEATVPCHEILTEKKDTI | 5.45 |
| NSISSDKEATVPCAEILTEKKDTI | 5.36 |
| NSISSDKEATVPCVEILTEKKDTI | 5.42 |
| NSISSDKEATVPCSEILTEKKDTI | 5.36 |
| NSISSDKEARVPCTEILTEKKDTI | 4.85 |
| NSISSDKEAHVPCTEILTEKKDTI | 5.48 |
| NSISSDKEAGVPCTEILTEKKDTI | 5.4 |
| NSISSDKEAMVPCTEILTEKKDTI | 5.17 |
| NSISSDKEAAVPCTEILTEKKDTI | 5.65 |
| NSISSDKEAFVPCTEILTEKKDTI | 5.27 |
| NSISSDKEAVVPCTEILTEKKDTI | 5.29 |
| NSISSDKLATVPCTEILTEKKDTI | 5.31 |
| NSISSDKYATVPCTEILTEKKDTI | 4.95 |
| NSISSDKCATVPCTEILTEKKDTI | 5.27 |
| NSISSDKAATVPCTEILTEKKDTI | 5.07 |
| NSISSDKFATVPCTEILTEKKDTI | 4.93 |
| NSISSDKEATVPCTEILTEKKDKI | 5.54 |
| NSISSDKEATVPCTEILTEKKDNI | 5.24 |
| NSISSDKEATVPCTEILTEKKDHI | 5.3 |
| NSISSDKEATVPCTEILTEKKDFI | 4.83 |
| NSISSDKEATVPCTEILTEKKDRI | 5.13 |
| NSISSDKEATVPCTEILTEKKDGI | 5.5 |

Variants of: B2
Assay: as above
Settings: c terminus: a fixed tail appended

| Variant | protein stability index |
| --- | --- |
| LQAASILDMRRDHEEQLQRLKLLK | 3.86 |
| LCRASILDMRRDHEEQLQRLKLLK | 2.63 |
| LSRASILDMRRDHEEQLQRLKLLK | 3.15 |
| LWRASILDMRRDHEEQLQRLKLLK | 2.4 |
| LLRASILDMRRDHEEQLQRLKLLK | 2.25 |
| LERASILDMRRDHEEQLQRLKLLK | 3.44 |
| LIRASILDMRRDHEEQLQRLKLLK | 2.49 |
| LFRASILDMRRDHEEQLQRLKLLK | 3 |
| LGRASILDMRRDHEEQLQRLKLLK | 3.79 |
| LHRASILDMRRDHEEQLQRLKLLK | 3.35 |
| LMRASILDMRRDHEEQLQRLKLLK | 3.28 |
| LTRASILDMRRDHEEQLQRLKLLK | 3.54 |
| LVRASILDMRRDHEEQLQRLKLLK | 2.88 |
| LNRASILDMRRDHEEQLQRLKLLK | 3.85 |
| LRRASILDMRRDHEEQLQRLKLLK | 3.27 |
| LKRASILDMRRDHEEQLQRLKLLK | 2.93 |
| LARASILDMRRDHEEQLQRLKLLK | 3.28 |
| LPRASILDMRRDHEEQLQRLKLLK | 3.95 |
| LDRASILDMRRDHEEQLQRLKLLK | 3.94 |
| LYRASILDMRRDHEEQLQRLKLLK | 2.77 |

| Variant | protein stability index |
| --- | --- |
| VQRASILDMRRDHEEQLQRLKLLK | 3.51 |
| HQRASILDMRRDHEEQLQRLKLLK | 3.33 |
| KQRASILDMRRDHEEQLQRLKLLK | 3.64 |
| YQRASILDMRRDHEEQLQRLKLLK | 2.35 |
| CQRASILDMRRDHEEQLQRLKLLK | 3.11 |
| SQRASILDMRRDHEEQLQRLKLLK | 3.35 |
| DQRASILDMRRDHEEQLQRLKLLK | 4.73 |
| FQRASILDMRRDHEEQLQRLKLLK | 3.19 |
| PQRASILDMRRDHEEQLQRLKLLK | 3.87 |
| AQRASILDMRRDHEEQLQRLKLLK | 3.81 |
| IQRASILDMRRDHEEQLQRLKLLK | 4.12 |
| NQRASILDMRRDHEEQLQRLKLLK | 3.64 |
| RQRASILDMRRDHEEQLQRLKLLK | 3.3 |
| MQRASILDMRRDHEEQLQRLKLLK | 3.45 |
| WQRASILDMRRDHEEQLQRLKLLK | 3.22 |
| QQRASILDMRRDHEEQLQRLKLLK | 3.69 |
| TQRASILDMRRDHEEQLQRLKLLK | 3.94 |
| EQRASILDMRRDHEEQLQRLKLLK | 4.42 |
| GQRASILDMRRDHEEQLQRLKLLK | 3.89 |
